# Values of other authors, collected in PMC2919054.
# Target: ILT7 (Homo sapiens) (UniProt P59901)
# Assay: SPR
# UniProt P59901, sequence (P59901 24-499): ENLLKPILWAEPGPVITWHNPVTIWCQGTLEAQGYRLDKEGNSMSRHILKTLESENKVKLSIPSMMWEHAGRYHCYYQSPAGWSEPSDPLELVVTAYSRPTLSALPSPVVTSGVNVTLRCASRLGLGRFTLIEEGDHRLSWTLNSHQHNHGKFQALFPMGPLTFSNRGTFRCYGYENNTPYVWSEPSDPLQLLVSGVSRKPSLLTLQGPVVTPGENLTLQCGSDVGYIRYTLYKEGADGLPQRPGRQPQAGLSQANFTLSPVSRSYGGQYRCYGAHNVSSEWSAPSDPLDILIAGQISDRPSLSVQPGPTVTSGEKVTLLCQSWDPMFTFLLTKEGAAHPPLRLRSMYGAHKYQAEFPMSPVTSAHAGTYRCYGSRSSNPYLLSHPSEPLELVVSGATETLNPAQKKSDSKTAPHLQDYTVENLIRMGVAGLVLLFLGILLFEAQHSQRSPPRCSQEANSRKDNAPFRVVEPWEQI
substance,measurement,value
BST2 (from UniProt Q10589),Kd,1 µM
